Here are results for one substance from publication PMC12713436.

Assay [1] has as its target frutalin (FTL), galactose-specific jacalin-related lectin from Artocarpus altilis (syn. Artocarpus incisa) seeds (Artocarpus altilis (syn. Artocarpus incisa)). Put plainly: SEC; FTL alone on a Superdex column equilibrated in PBS + 50 mM D-galactose; single peak at Ve = 15.57 mL; apparent mass from calibration; oligomer of alpha-beta protomers. (In general: In gel filtration, larger molecules generally elute earlier.)

Assay [2] addresses secretory immunoglobulin A1 (sIgA1) from human colostrum (human (endogenous in colostrum)) (UniProt P01591). Description: dynamic light scattering; sIgA1 titrated with FTL (0.06–1.94 mg/mL); Z-average diameter against FTL:sIgA1 molar ratio; Hill fit; apparent KD.
Assay [3] shares this target.
Assay [4] has the same target. Description: BLI; Octet RED96; sIgA1 immobilised on AR2G biosensors via amine coupling, FTL as analyte; 25 °C; PBS with 0.02% Tween-20; global fit, 1:2 bivalent analyte model. Background: In BLI a coated tip is dipped into the sample, and binding shifts an interference pattern.

“frutalin (FTL), galactose-specific jacalin-related lectin from Artocarpus altilis (syn. Artocarpus incisa) seeds (natural protein)”: in assay [1], the stoichiometry N (usually the number of molecules, sites or subunits per partner or assembly) worked out at 2. Moreover, in assay [2], the stoichiometry N was 1 to 1.5 FTL:sIgA1. The substance also showed a hemagglutination titer (rabbit erythrocytes) of the preformed FTL–sIgA1 complex at 1 mg/mL, with 0 to 200 mM D-galactose (∼2^8 at 200 mM); free FTL ∼2^17 (∼2^9 at 200 mM galactose); sIgA1 alone ∼2^4 in assay [3] of 65500 HU. Also, in assay [4], the koff (in general, the first-order rate constant of dissociation) was determined as 0.00214 s⁻¹ and the kon (usually the rate constant with which the complex forms) came to 596000 M⁻¹ s⁻¹.
